The chains are these.
B2: recombinant murine IgG2a Fc (domain or fragment, mouse, UniProt P01863 98-330, looked up)
chain: EPRGPTIKPCPPCKCPAPNLLGGPSVFIFPPKIKDVLMISLSPIVTCVVVDVSEDDPDVQISWFVNNVEVHTAQTQTHREDYNSTLRVVSALPIQHQDWMSGKEFKCKVNNKDLPAPIERTISKPKGSVRAPQVYVLPPPEEEMTKKQVTLTCMVTDFMPEDIYVEWTNNGKTELNYKNTEPVLDSDGSYFMYSKLRVEKKNWVERNSYSCSVVHEGLHNHHTTKSFSRTPGK
notes: murine IgG2a Fc: hinge, CH2 and CH3 domains, no Fab region; Runs as a homodimer (45 kDa) on non-reducing SDS-PAGE, with a weaker band at about 90 kDa; source: recombinant, from a cDNA construct; host and purification are stated for the stradomers only (HEK293, protein A-derived column)

Data set [1] concerns the target recombinant mouse FcγRIIb (mouse) (UniProt P08101). Put plainly: SPR; Biacore 3000 or T100; receptors immobilised by amine coupling on CM4 (FcγRs) or CM5 (SIGN-R1) chips; samples 1,000 nM to 0.5 nM in HBS-EP at 20 μl/min; 1:1 Langmuir kinetic model; molecular mass of 50 kDa assigned to homodimer isolates and 150 kDa to all other preparations.
Data set [2] deals with recombinant mouse FcγRI (mouse) (UniProt P26151). The description is as above.
Data set [3] has as its target recombinant mouse FcγRIV (mouse). Described as above.
The target in data set [4] is recombinant mouse FcγRIII (mouse) (UniProt P08508). Described as above.
The target of data set [5] is recombinant mouse SIGN-R1 (mouse) (UniProt Q8CJ91). Described as above.
In the next data set the target is T1, recombinant mouse FcγRI (mouse, UniProt P26151 25-297).
T1 construct: mouse Fc gamma receptor I, recombinant; source: bought: R&D Systems
T1 sequence (looked up): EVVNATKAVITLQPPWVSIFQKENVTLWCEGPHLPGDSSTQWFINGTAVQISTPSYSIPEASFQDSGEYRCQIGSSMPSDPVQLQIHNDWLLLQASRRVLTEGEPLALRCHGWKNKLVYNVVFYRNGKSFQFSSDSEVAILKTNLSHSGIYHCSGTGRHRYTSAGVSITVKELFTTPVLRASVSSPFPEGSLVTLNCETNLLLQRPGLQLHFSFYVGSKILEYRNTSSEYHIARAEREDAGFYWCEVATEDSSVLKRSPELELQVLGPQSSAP
Described as above.

The target of data set [6] is T2, recombinant mouse SIGN-R1 (mouse), Q8CJ91.
T2 chain: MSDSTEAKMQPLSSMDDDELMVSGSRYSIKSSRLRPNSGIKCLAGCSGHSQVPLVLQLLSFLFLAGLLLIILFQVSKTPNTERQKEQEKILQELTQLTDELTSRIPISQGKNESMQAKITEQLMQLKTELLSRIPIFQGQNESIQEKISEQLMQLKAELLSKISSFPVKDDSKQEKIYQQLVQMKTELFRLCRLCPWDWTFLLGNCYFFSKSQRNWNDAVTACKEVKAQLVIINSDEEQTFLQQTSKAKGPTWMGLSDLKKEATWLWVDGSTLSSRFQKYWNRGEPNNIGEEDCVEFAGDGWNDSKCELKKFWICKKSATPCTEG
The data set is described as above.

Data set [7] concerns the molecule itself. Put plainly: SDS-PAGE, nonreduced against reduced; 0.5 to 2 μg of purified protein on 4-12% Bis-Tris gels, Coomassie stain; multimers present under denaturing but not reducing conditions (covalently linked).
Data set [8] deals with B2. Briefly: SPR; Biacore 3000 or T100; receptors immobilised by amine coupling on CM4 (FcγRs) or CM5 (SIGN-R1) chips; samples 1,000 nM to 0.5 nM in HBS-EP at 20 μl/min; 1:1 Langmuir kinetic model; molecular mass of 50 kDa assigned to homodimer isolates and 150 kDa to all other preparations. To be noted: both partners purified.

In general, Kd refers to the constant that tells how readily two partners part at equilibrium. Broadly, the stoichiometry N is the number of molecules, sites or subunits per partner or assembly.

Like-named read-outs stand apart in the source and are kept apart here.

Consider “2A-ILZC: stradomer with the isoleucine zipper linked to the carboxy terminus of murine IgG2a Fc (Fc fusion)”, for which the Kd was found to be 455 nM in [1], 63.4 nM in [2], 63.6 nM in data set [3] and 151 nM in [4].
With “2A-2HN: stradomer with hinge of human IgG2 linked to the amino terminus of murine IgG2a Fc (Fc fusion)”, the Kd in data set [5] was 109 nM; in [1] it was 3.4 nM; in data set [3] it was 7.6 nM; in data set [4] it was 4.4 nM; with recombinant mouse FcγRI, 16.3 nM.
Take “2A-2HC: stradomer with hinge of human IgG2 linked to the carboxy terminus of murine IgG2a Fc (unfractionated) (Fc fusion)”: the dissociation constant Kd in data set [1] turned out to be 3.3 nM; in [3], 3.03 nM; in data set [4], 4.2 nM; with recombinant mouse FcγRI, 9.12 nM.
As to “2A-ILZN: stradomer with the isoleucine zipper linked to the amino terminus of murine IgG2a Fc (Fc fusion)”, the dissociation constant Kd in [1] came out at 3.8 nM; in data set [2], 6.71 nM; in data set [3], 0.46 nM; in data set [4], 2.3 nM.

B1: 2A-ILZN: stradomer with the isoleucine zipper linked to the amino terminus of murine IgG2a Fc (Fc fusion)
chain: EPRGPTIKPCPPCKCPAPNLLGGPSVFIFPPKIKDVLMISLSPIVTCVVVDVSEDDPDVQISWFVNNVEVHTAQTQTHREDYNSTLRVVSALPIQHQDWMSGKEFKCKVNNKDLPAPIERTISKPKGSVRAPQVYVLPPPEEEMTKKQVTLTCMVTDFMPEDIYVEWTNNGKTELNYKNTEPVLDSDGSYFMYSKLRVEKKNWVERNSYSCSVVHEGLHNHHTTKSFSRTPGK
modifications: not checked
In the case of B1, the equilibrium dissociation constant (Kd) in [6] came to 134 nM.
For the molecule B2, the Kd in the data set with recombinant mouse FcγRI (both partners purified) worked out at 17.4 nM. Further, the “stoichiometry N” value in data set [7] amounted to 2.

B3: 2A-ILZC: stradomer with the isoleucine zipper linked to the carboxy terminus of murine IgG2a Fc (Fc fusion)
chain: EPRGPTIKPCPPCKCPAPNLLGGPSVFIFPPKIKDVLMISLSPIVTCVVVDVSEDDPDVQISWFVNNVEVHTAQTQTHREDYNSTLRVVSALPIQHQDWMSGKEFKCKVNNKDLPAPIERTISKPKGSVRAPQVYVLPPPEEEMTKKQVTLTCMVTDFMPEDIYVEWTNNGKTELNYKNTEPVLDSDGSYFMYSKLRVEKKNWVERNSYSCSVVHEGLHNHHTTKSFSRTPGK
modifications: not checked
Take B3: the dissociation constant (Kd) in data set [6] was 43.9 nM.

B4: recombinant mouse FcγRIV (receptor, UniProt A0A0B4J1G0 21-203, looked up)
chain: GLQKAVVNLDPKWVRVLEEDSVTLRCQGTFSPEDNSIKWFHNESLIPHQDANYVIQSARVKDSGMYRCQTALSTISDPVQLEVHMGWLLLQTTKWLFQEGDPIHLRCHSWQNRPVRKVTYLQNGKGKKYFHENSELLIPKATHNDSGSYFCRGLIGHNNKSSASFRISLGDPGSPSMFPPWHQ
notes: mouse Fc gamma receptor IV, recombinant; source: bought: R&D Systems
Regarding B4, the equilibrium dissociation constant (Kd) in [8] was 27.8 nM.

B5: recombinant mouse FcγRIIb (receptor, UniProt P08101 30-210, looked up)
chain: THDLPKAVVKLEPPWIQVLKEDTVTLTCEGTHNPGNSSTQWFHNGRSIRSQVQASYTFKATVNDSGEYRCQMEQTRLSDPVDLGVISDWLLLQTPQLVFLEGETITLRCHSWRNKLLNRISFFHNEKSVRYHHYSSNFSIPKANHSHSGDYYCKGSLGRTLHQSKPVTITVQGPKSSRSLP
notes: mouse Fc gamma receptor IIb, recombinant; His tag and catalogue number are told for the biolayer interferometry only; also called His-tagged mouse FcγRIIb; source: bought: R&D Systems
With B5, the dissociation constant (Kd) in [8] was determined as 289 nM.

B6: recombinant mouse FcγRIII (receptor, UniProt P08508 31-215, looked up)
chain: ALPKAVVKLDPPWIQVLKEDMVTLMCEGTHNPGNSSTQWFHNGRSIRSQVQASYTFKATVNDSGEYRCQMEQTRLSDPVDLGVISDWLLLQTPQRVFLEGETITLRCHSWRNKLLNRISFFHNEKSVRYHHYKSNFSIPKANHSHSGDYYCKGSLGSTQHQSKPVTITVQDPATTSSISLVWYHT
notes: mouse Fc gamma receptor III, recombinant; His tag and catalogue number are told for the biolayer interferometry only; also called His-tagged mouse FcγRIII; source: bought: R&D Systems
For B6, the Kd in data set [8] came to 248 nM.
